Measured values from patent publication US7910106B2, “Combinations of SAP depleting agents and anti-SAP antibodies” (Pentraxin Therapeutics Ltd., priority 2007, dated 2011).

Tests used:
[1] = biological target: T1, SAP (Homo sapiens, UniProt P02743); assay: Human SAP in serum and organ extracts by electroimmunoassay, AA amyloidotic human SAP transgenic mice (Example 1); format: in vivo, mouse; set-up: from tissue; host or cells: serum, spleen and liver of C57BL/6 mice with the mouse SAP gene deleted and transgenic for human SAP; conditions: for Human SAP concentrations in serum [mean (SD)]: post CPHPC before antibody day 0, CPHPC 1 mg/ml in drinking water
From the text: In the present study AA amyloidosis was induced in mice by amyloid enhancing factor injection followed by repeated casein injections to elicit persistent acute inflammation and thus sufficiently sustained increase in SAA production to promote AA amyloid deposition in all animals. A unique strain of pure line C57BL/6 animals was used in which the mouse SAP gene has been deleted^13 and a human SAP transgene has been introduced^14, 15. […] We then treated three very closely matched groups as follows:
Systemic AA amyloidosis was induced in adult male (n=61) and female (n=32) pure line C57BL/6 mice with the mouse SAP gene deleted and which were transgenic for human SAP^15. Each mouse received a single dose of amyloid enhancing factor^9 by intravenous injection followed 4 days later by 10 daily subcutaneous injections of 10% w/v casein in solution in 0.1M NaHCO3 administered over a 12 day period^13. Seven days after the last casein injection, KI was introduced into the drinking water of all mice and 3 days later each mouse received an intravenous injection of a standard dose of ^125I-labelled human SAP^6,18. Four adult male and four female mice from the same colony but which had not received any other treatment were also given KI and ^125I-SAP as controls. All mice underwent whole body counting 24, 48, 72 96 and 168 h after the tracer injection to determine retention of radioactivity as an index of whole body amyloid load. […] The mice were then allocated to three closely matched groups with as close as possible to the same total numbers and sex distribution in each group. Ten days after the ^125I-SAP injection groups one and two were started on CPHPC in their drinking water at 1 mg/ml and continued on that treatment until the end of the experiment. Group three received no treatment at this or any later stage of the study. Five days after starting the CPHPC each animal in group one received an intraperitoneal injection comprising 1 ml of the whole IgG fraction of monospecific sheep anti-human SAP antiserum at 50 mg/ml containing 7 mg/ml of specific antibody in solution in phosphate buffered physiological saline. The antiserum was raised by immunisation of sheep with 100% pure human SAP. At the same time all animals in group 2 received an intraperitoneal injection comprising 1 ml of the whole IgG fraction of monospecific sheep anti-human oncostatin M receptor antiserum at 50 mg/ml in solution in phosphate buffered physiological saline. […] Twenty eight days after the intraperitoneal injections all mice were killed by bleeding out under terminal anaesthesia and the liver and spleen from each were removed. Each organ was weighed and then divided into three portions, one of which was also weighed and used for extraction of SAP, while the second portion was snap frozen for subsequent immunohistochemical and cytochemical analysis without fixation, and the last part was fixed in buffered formalin for routine histology and estimation of amyloid by Congo red staining^19. All mice were weighed at the time of assignment to the groups after induction of amyloidosis but before administration of ^125I-SAP. They were all weighed again before being killed at the end of the experiment. All mice were bled four times: (1) immediately before groups […] were started on CPHPC; (2) the day before injection of IgG preparations in groups […]; (3) 14 days after the IgG injections; (4) at the time of killing. Sections of spleen and liver of all animals stained with Congo red were independently examined by three different expert observers blinded to the treatment each mouse had received and scored for the amount of amyloid present as previously reported. The scores of 10^0-10^4 represent an approximately log base 10 ranking scale from 10^0, corresponding to one or two tiny specks of amyloidosis among several sections of a particular organ, to 10^4 corresponding to abundant widespread deposits comprising about 10,000 times more amyloid^13. […]

[2] = biological target: T1, SAP; assay: CPHPC administration in human systemic amyloidosis patients; format: in vivo; set-up: Human SAP is a constitutive protein in the plasma; from tissue; host or cells: plasma/serum and amyloid deposits of human patients; conditions: after months of continuous CPHPC administration
[3] = biological target: T1, SAP; assay: Treatment of a patient with systemic amyloidosis using CPHPC and anti-SAP antibody (Example 2); format: in vivo; set-up: Human SAP is a constitutive protein in the plasma; from tissue; host or cells: plasma/serum and amyloid deposits of human patients; conditions: day after bolus intravenous 100 mg CPHPC
Procedure: A patient suffering from systemic amyloidosis is diagnosed by clinical examination and routine investigations leading to suspicion of amyloidosis, followed by specific confirmation by expert histochemical examination of biopsies of affected tissues. Radiolabelled SAP scintigraphy is performed in the UK NHS National Amyloidosis Centre at the Centre for Amyloidosis and Acute Phase Proteins in the Department of Medicine of University College London at the Royal Free Hospital. […] Routine clinical investigations of organ function establish the extent and severity of tissue and organ damage caused by the amyloid deposits, as well as the presence and severity of any underlying primary disease which may have led to amyloid deposition.
The patient is treated with the SAP depleting drug, CPHPC, administered by bolus intravenous injection of a dose of 100 mg. The following day a blood sample is taken. This confirms by specific immunoassay that the SAP concentration in the serum has been reduced by 90%. An intravenous infusion of anti-SAP antibody is then commenced and over a period of several hours a dose of 1000 mg of antibody is administered sufficient to bind to SAP within the amyloid deposits throughout the body. CPHPC is administered parenterally twice daily for the next two weeks, to ensure that plasma SAP values remain suppressed. […]

[4] = biological target: T1, SAP; set-up: Human SAP is a constitutive protein in the plasma; from tissue; host or cells: plasma/serum and amyloid deposits of human patients; conditions: in vivo; cited from earlier work
[5] = cited from earlier work
[6] = biological target: human serum amyloid P component (SAP), isolated pure, native (human) (UniProt P02743); assay: IRMA, SAP non-covalently immobilised, antibody at 0.01 ug/ml, detection polyvalent anti-mouse IgG
[7] = biological target: human serum amyloid P component (SAP), isolated pure, native (human) (UniProt P02743); assay: IRMA, SAP alone captured on immobilised sheep polyclonal anti-human SAP, in calcium, radiolabelled sheep anti-mouse IgG, mean n=3
[8] = biological target: human serum amyloid P component (SAP), isolated pure, native (human) (UniProt P02743); assay: IRMA, SAP non-covalently immobilised, antibody at 10 ug/ml, detection polyvalent anti-mouse IgG
[9] = biological target: human serum amyloid P component (SAP), isolated pure, native (human) (UniProt P02743); assay: IRMA, SAP non-covalently immobilised, antibody at 1 ug/ml, detection polyvalent anti-mouse IgG
[10] = biological target: human serum amyloid P component (SAP), isolated pure, native (human) (UniProt P02743); assay: IRMA, SAP non-covalently immobilised, antibody at 100 ug/ml, detection anti-mouse IgG2a
[11] = biological target: human serum amyloid P component (SAP), isolated pure, native (human) (UniProt P02743); assay: IRMA, SAP non-covalently immobilised, antibody at 0.001 ug/ml, detection anti-mouse IgG2a
[12] = biological target: human SAP complexed with CPHPC and covalently cross-linked with BS3 (human) (UniProt P02743); assay: IRMA, SAP-CPHPC complex covalently immobilised, in calcium, radiolabelled sheep anti-mouse IgG, mean n=3
[13] = biological target: human serum amyloid P component (SAP), isolated pure, native (human) (UniProt P02743); assay: IRMA, SAP alone covalently immobilised, in calcium, radiolabelled sheep anti-mouse IgG, mean n=3
[14] = biological target: human serum amyloid P component (SAP), isolated pure, native (human) (UniProt P02743); assay: IRMA, SAP non-covalently immobilised, antibody at 100 ug/ml, detection polyvalent anti-mouse IgG
[15] = biological target: human serum amyloid P component (SAP), isolated pure, native (human) (UniProt P02743); assay: IRMA, SAP alone covalently immobilised, in EDTA, radiolabelled sheep anti-mouse IgG, mean n=3
[16] = biological target: human serum amyloid P component (SAP), isolated pure, native (human) (UniProt P02743); assay: IRMA, SAP non-covalently immobilised, antibody at 0.1 ug/ml, detection anti-mouse IgG2a
[17] = biological target: human serum amyloid P component (SAP), isolated pure, native (human) (UniProt P02743); assay: IRMA, SAP non-covalently immobilised, antibody at 10 ug/ml, detection anti-mouse IgG2a
[18] = biological target: human serum amyloid P component (SAP), isolated pure, native (human) (UniProt P02743); assay: IRMA, SAP non-covalently immobilised, antibody at 0.001 ug/ml, detection polyvalent anti-mouse IgG
[19] = biological target: human SAP complexed with CPHPC and covalently cross-linked with BS3 (human) (UniProt P02743); assay: IRMA, SAP-CPHPC complex captured on immobilised sheep polyclonal anti-human SAP, in calcium, radiolabelled sheep anti-mouse IgG, mean n=3
[20] = biological target: human SAP complexed with CPHPC and covalently cross-linked with BS3 (human) (UniProt P02743); assay: IRMA, SAP-CPHPC complex covalently immobilised, in EDTA, radiolabelled sheep anti-mouse IgG, mean n=3
[21] = biological target: human serum amyloid P component (SAP), isolated pure, native (human) (UniProt P02743); assay: Biacore (SPR), isolated pure SAP alone immobilised on the chip
[22] = biological target: human serum amyloid P component (SAP), isolated pure, native (human) (UniProt P02743); assay: IRMA, SAP non-covalently immobilised, antibody at 0.01 ug/ml, detection anti-mouse IgG2a
[23] = biological target: human serum amyloid P component (SAP), isolated pure, native (human) (UniProt P02743); assay: IRMA, SAP non-covalently immobilised, antibody at 1 ug/ml, detection anti-mouse IgG2a
[24] = biological target: human serum amyloid P component (SAP), isolated pure, native (human) (UniProt P02743); assay: IRMA, SAP non-covalently immobilised, antibody at 0.1 ug/ml, detection polyvalent anti-mouse IgG

T1 sequence (P02743 20-223): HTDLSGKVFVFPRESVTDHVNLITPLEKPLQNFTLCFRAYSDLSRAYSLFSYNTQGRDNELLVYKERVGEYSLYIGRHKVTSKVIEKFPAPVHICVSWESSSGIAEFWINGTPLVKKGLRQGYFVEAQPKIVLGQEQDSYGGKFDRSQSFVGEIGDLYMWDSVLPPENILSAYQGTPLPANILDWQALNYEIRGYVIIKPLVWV
Chain of human serum amyloid P component (SAP), isolated pure, native (human) (P02743 20-223): as above
Chain of human SAP complexed with CPHPC and covalently cross-linked with BS3 (human) (P02743 20-223, one chain of several): as the sequence (P02743 20-223) above

O=C(O)[C@H]1CCCN1C(=O)CCCCC(=O)N1CCC[C@@H]1C(=O)O [CPHPC, (R)-1-[6-[(R)-2-Carboxy-pyrrolidin-1-yl]-6-oxo-hexanoyl]pyrrolidine-2-carboxylic acid]
Human SAP concentrations in serum [mean (SD)] ([1]; females): 4.0 (1.4) mg/l | Human SAP concentrations in serum ([1]; females, post antibody day 14): trace | Human SAP concentrations in serum ([1]; females, post antibody day 28): trace | Human SAP concentrations in serum [mean (SD)] ([1]; males): 2.9 (1.3) mg/l | Human SAP concentrations in serum ([1]; males, post antibody day 14): trace | Human SAP concentrations in serum ([1]; males, post antibody day 28): trace | Greatest depletion of SAP from amyloid deposits [2]: about 90% | Reduction of SAP concentration in the serum [3]: 90% | Tolerability / adverse effects [4]: extremely well tolerated

human SAP: isolated pure human SAP injected to load amyloid deposits
Half time of persistence in amyloid deposits ([5]; amyloidotic mice): 3 to 4 days | Half life of clearance from the circulation ([5]; human SAP not bound to amyloid): 3 to 4 h

mouse monoclonal anti-human SAP antibody SAP-5
Activity bound (d.p.m.) [6]: 902 d.p.m. | Activity bound (d.p.m.) [7]: 9310 d.p.m. | Activity bound (d.p.m.) [8]: 15400 d.p.m. | Activity bound (d.p.m.) [9]: 12100 d.p.m. | Activity bound (d.p.m.) [10]: 2200 d.p.m. | Activity bound (d.p.m.) [11]: 94 d.p.m. | Activity bound (d.p.m.) [12]: 6160 d.p.m. | Activity bound (d.p.m.) [13]: 5580 d.p.m. | Activity bound (d.p.m.) [14]: 16200 d.p.m. | Activity bound (d.p.m.) [15]: 4050 d.p.m. | Activity bound (d.p.m.) [16]: 589 d.p.m. | Activity bound (d.p.m.) [17]: 1980 d.p.m. | Activity bound (d.p.m.) [18]: 195 d.p.m. | Activity bound (d.p.m.) [19]: 7120 d.p.m. | Activity bound (d.p.m.) [20]: 5140 d.p.m. | koff [21]: 6e-05 s⁻¹ | kon [21]: 20000 M⁻¹ s⁻¹ | Activity bound (d.p.m.) [22]: 222 d.p.m. | Activity bound (d.p.m.) [23]: 1650 d.p.m. | Activity bound (d.p.m.) [24]: 4560 d.p.m.
